Data reported in PMC2603313, “Direct Inhibition of GSK3β by the Phosphorylated Cytoplasmic Domain of LRP6 in Wnt/β-Catenin Signaling” (PLoS ONE, 2008).
Square brackets hold non-standard residues; d marks the D form. Ends that are not written are not given here. pT = C[C@@H](OP(=O)(O)O)[C@H](N)C(=O)O; pS = N[C@@H](COP(=O)(O)O)C(=O)O

Experiments:
GSK3β = details: toward full-length β-catenin; cited from earlier work
Procedure: We next sought to determine if the phosphorylated LRP6 motifs are capable of inhibiting GSK3β in the Axin complex. An in vitro kinase assay with Axin-bound GSK3β was performed by adding the purified GSK3β binding domain (GBD) of Axin to the reaction mixture.

[1] = target: GSK3β catalytic domain, 27-393 (UniProt Q9WV60); test: inhibition of GSK3β kinase activity, band shift; details: reference: non-phosphorylated peptide …; sites S1490
[2] = target: catalytic domain of mouse GSK3β (residues 27–393) (mouse) (UniProt Q9WV60)
[3] = target: T1, catalytic domain of mouse GSK3β (residues 27–393) (mouse, UniProt Q9WV60 27-393); test: steady-state kinetics of enzyme inhibition (GSK3β kinase assay, band shift on SDS-PAGE); apparent Ki; 50 mM Tris pH 8.0, 10 mM MgCl2, 10 mM 2-mercaptoethanol, 1 mM ATP, 8 ng GSK3β catalytic domain, 6 µM primed β-catenin N-terminal fragment (1-133), 37°C; peptide 0, 1, 3, 10, 30 µM; (V0/Vi)−1 = [peptide]/Ki; details: both partners purified
T1 construct: GSK3β (glycogen synthase kinase 3 beta), mouse, catalytic domain, residues 27-393; also called recombinant GSK3β catalytic domain; source: recombinant, expressed and purified as previously described [32]

[4] = target: T1, catalytic domain of mouse GSK3β …; test: far-Western, overlay or dot blot; 15 µg GST-miniCL on PVDF; membrane incubated with GSK3β (2 µg/ml) and/or His-Axin (12 µg/ml) in TBST containing 1% skim milk; details: both partners purified

For “full-length Axin: full-length Axin scaffold protein”, the “Effect on GSK3β activity” value (GSK3β) is given as “increases GSK3β activity”.

In the case of “LRP6 (from UniProt O75581) pS1490 peptide NPPPpSPATERSH”, the “binding against the reference” value [1] is reported as “gained”.

“GST-fused mouse Axin GBD (GSK3β binding domain, residues 512–530) (domain or fragment)” gave an inhibition of in vitro GSK3β activity at above 2.5 µM of GST-Axin GBD [2] of 20%.

B1: dually-phosphorylated LRP6 PPPSPxS peptide (NPPPpSPApTERSH) (peptide)
peptide: {biotin (sulfo-NHS-SS-biotin)}-NPPP[pS]PA[pT]ERSH-NH2
notes: LRP6, first PPPSPxS motif; The biotin is joined by a disulfide that can be cut by reduction; the kinase buffer holds 10 mM 2-mercaptoethanol; also called PPP(p)SPx(p)S; dually-phosphorylated peptide; source: synthetic peptide (solid-phase synthesis)
B1 showed a Ki [3] of 13 µM.

B2: GST-fused LRP6 miniCL (residues 1470–1510 of human LRP6), not phosphorylated (domain or fragment, UniProt O75581 1470-1510, looked up)
chain: SSSSSSTKGTYFPAILNPPPSPATERSHYTMEFGYSSNSPS
modifications: also: GST fusion (GST left off)
notes: LRP6, human, intracellular fragment miniCL, residues 1470-1510 (Ser/Thr rich cluster and first PPPSPxS motif); also called GST-miniCL; LRP6 miniCL region; source: E. coli, purified (Glutathione-agarose, HiTrapQ)
B2: binds [4].
